B1: ZNF263 (parent)
chain: HLTRHQRTHTGEKPYKCTLCGENF

Variants of: B1
Assay: protein stability index of a GFP-peptide fusion (GPS, HEK-293T) (PSI 1-6); higher = more stable
Settings: c terminus: a fixed tail appended
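Further: lentivirally expressed fusions sorted by FACS into six bins by GFP to DsRed ratio, PSI derived from sequencing read proportions per bin multiplied by bin number.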

Variant	protein stability index
H9V	2.65
H9W	1.89
H9Y	2.19
T10L	1.98
T10H	3.19
T10M	2.48
T10N	2.44
T10Y	2.58
T10E	3.42
T10W	2.82
T10Q	3.44
T10G	2.92
T10F	2.73
T10V	2.45
T10K	3.12
T10A	3.14
T10D	2.78
T10I	3.13
T10C	2.96
T10S	3.12
T10R	3.36
T10P	2.45
C17R	2.98
C17G	3.52

Variant	protein stability index
C17D	3.73
C17T	3.06
C17A	3.24
C17H	2.89
C17M	2.81
C17Q	3.46
C17Y	3.05
C17S	3.4
C17E	3.96
C17K	3.71
C17F	2.44
C17I	2.21
C17N	3.1
C17L	2.68
C17P	3.37
C17V	3.7
E12G	2.23
E12F	2.47
E12T	2.59
E12M	2.71
E12V	3.08
E12R	2.55
E12C	2.41
E12D	2.68

Variant	protein stability index
E12K	3.2
E12W	1.87
E12H	3.78
E12N	2.7
E12S	3.19
E12P	2.8
E12I	2.11
E12A	3.53
E12L	2.29
E12Y	2.84
E12Q	2.74
T18K	2.98
T18M	2.42
T18P	2.4
T18N	2.81
T18G	2.45
T18A	2.94
T18E	3.78
T18C	2.54
T18I	2.36
T18D	2.75
T18F	2.56
T18H	2.65
T18L	2.49

Variant	protein stability index
G11T	3.01
G11C	4.07
G11Q	3.55
G11A	3.15
G11E	3.92
G11N	2.98
G11Y	2.17
G11V	2.38
G11L	2.99
G11D	3.25
G11S	3.45
G11F	2.72
G11P	2.86
G11H	2.83
G11K	3.06
G11R	2.94
G11I	2.46
G11M	2.84
G11W	2.07
K16R	2.87
K16F	2.7
K16G	3.19
K16T	2.9
K16I	2.97

Variant	protein stability index
K16A	3.72
K16W	2.78
K16N	2.82
K16Y	2.52
K16H	2.91
K16P	3.32
K16S	3.19
K16M	3.17
K16C	2.83
K16V	2.3
K16Q	3.17
K16E	3.82
K16D	3.74
K16L	2.33
P14T	2.88
P14F	2.78
P14D	3.65
P14Y	3.04
P14K	3.31
P14S	2.79
P14W	3.26
P14R	2.9
P14I	2.9
P14N	2.92

Variant	protein stability index
P14V	2.77
P14E	3.21
P14C	2.52
P14H	3.01
P14A	2.79
P14M	2.63
P14Q	3.14
P14L	3.14
P14G	3.58
K13V	2.69
K13W	2.5
K13M	2.56
K13A	3.28
K13G	2.92
K13E	3.64
K13S	3.24
K13I	2.13
K13P	2.88
K13L	2.03
K13Y	2.74
K13R	2.98
K13N	3.16
K13T	3.54
K13F	2.65

Variant	protein stability index
K13C	4.22
K13D	2.82
K13Q	3.6
K13H	2.9
Y15G	3.29
Y15P	3.1
Y15M	3.18
Y15S	3.48
Y15E	3.69
Y15Q	3.44
Y15K	3.11
Y15D	4.21
Y15C	4.52
Y15L	2.81
Y15I	2.85
Y15A	3.23
Y15V	3.22
Y15F	3.31
Y15T	3
Y15H	3.24
Y15W	2.46
Y15R	2.93
Y15N	3.29

Source: the supplement of paper PMC10567573
